Measured values as given in the DeepSol protein solubility set.

Experiment: soluble on expression in E. coli; label from the status in PepcDB or PDB records

Row | Sequence | soluble on expression in E. coli
1 | MLFDSHAHYDNKRFDEDRFEVIKKAYDSGVSYILNAAADMASSLETVSLTRKFDFIYGAVGVHPHEVAKMSDDDIEKLKDFAKEEKIVAIGEIGLDYYYDFSPREQQKLWFARQINLAKELNLPIIVHDRDAHKDVLDIVKAEQAKDVGGVFHCYSGSVEMLKDVLENNFYISVGGTLTFKNAKRVVEVVERVPLDRLLIETDCPYLTPEPHRGKRNDSSYVRLVAEKIAKIRGMSFEEVAEITTNNAKRLFGIK | not soluble
2 | MLFVLILSHRAASYGAIMAALPYMQLYIADYLADTMHLSAEEHGAYLLLMFNYWQTGKPIPKNRLAKIARLTNERWADVEPSLQEFFCDNGEEWVHLRIEEDLASVREKLTKKSAAGKASVQARRSRKEADVQTKQERNLTGVQTDVEVVFEHDVNTKATNKDTDKDLKTDPPLNPPRGNRGVKKFDPLDITLPNWISVSLWREWVEFRQALRKPIRTEQGANGAIRELEKFRQQGFSPEQVIRHSIANEYQGLFAPKGVRPETLLRQVNTVSLPDSAIPPGFRG | not soluble
3 | MLGDGLSVALAGLLHDVGKLYSRARWGERDDQVPDRTHTAYTAHFVREHAGLFRGAGLDPDWLARTASRHHEGWRDRPQYRPETPEEWCVALADTYASKEREEGEGGGSPPEVPLSPPFRRLLLGGEEGREGGYSPVGAGGRVGLEAGGLYPEERPNVSKDVYKRLLERLEGRLEEMARFSLGKEALVLNLALALQETLSLVPSDTQSEPDVSLYDHLRLTAAIAHALWLFHGGSPSAQNLRQDGEKFLLVVGDMGGIQGHIYRIAGAEAGVGGIAKRLRARSLEVSLAAEAMALGLLWRLGLTSLNRILGAGGKFYLLLPNTEEARAALEGTREAWGRWALKRGGSLVPHLAWVAFRGQDFRDFAALLKRLHEALAREKLRPFAFLASTGGVLGAPLRPCAACGLEPARRDEPGSLCPDCEREAALGARLPRSDRVGFFLEEAPRPYLDFPGLKVGLGGPLEGAFHLFRARLDFAPWPDPSEAKPLLGHLPRVEHALKAKGWSLEAYRAWAEEEGLLEDEEPHPEKVLTFAELAALSEGAPYLGALMLDADRMGEAFATGFRREGRDLATPSRLAALSRTLEVFFTTEVLTLLEEPRRYRERLGWDDLEAQRKEARYPLLYSVYSGGDDLFLLGPWDALLDFALDLERLYRLFTRHPRLTLSGGFLLVPPSLPVPELARLLGEAEKRAKAEGRERLFLFGQAVPWETLRGLRAWAEGLRQDLRAERVSRAQVYRWLLLWRRFSPLEDPGERMRYKPLLAYALRRVRERDEEAWKRYLKLLDHQDPAWAYLPVWVQWALYRERRV | soluble
4 | MLGKSLVKEKITDSVVSSPNGLVLLAPEMTLPVDVEENKPEESKDSAHERNCATAGVESPSNPVDSCLKLTYVEEGDNDRESNLKLLDGSVEEKEDTKKLTDIDINSLPDEVDDSHADQSDTKEQEIDDKEDKTPLSDDGCEGKAEGTKESNQQPDSNKVDNSQPLGNGGTGEELGNRTLALKREVTPTLRASPRLIQRSWRTSRVNQKFTGTTNAVLLDSPHRCV | soluble
5 | MLGLFDQGRLIGAVVLDPRRLGPERDWLQLKFLHLSHAYRRRGLGAHLFHLAATQARHLGASALYVSATPSQNTVDFYTRLGCR | soluble
6 | MLGMHFTPVEVFHRYIMPQIRDHLNDYLWVDMFCGEGNLILPMLDYIDRDRRGEFFRDHIMCFDIDESAVERSIENAMKYGIPQEMARRNIRTRDTLMDYPVLSGRYPVFHITNPPYLYLGYIRKRKDARRHQEYFEGQNDGYQDLYQIAMMNDLRHGIGNMIYIIPSNFFFSDAGTRKIREDFLKIYRIGSCYIFERRIFPSTGTNVMILSFQRSQSPVESIEFDAIRINKHEEKKRYVLRSENNFKPDNEYQDYIRAHFRPDHPVVKFYLTYDEIGKNPGNNRVVLVNSKEYRHGEYERETFSVNDDLYARIKSNPLYVRTVDKGTREGRSGIYSIIRDFGADGIFVKGPTYRTSPIQIFIDPPLSANEALKLMEIFNRTLNDLRERSDSDFMTTYKYSDSAAYVRKYLGLKQVRGIMSTISLEDLKDGASSTDL | not soluble
7 | MLHTTDFSDIFSSDYSSKVSFKKGDIIHSFKDYEKKPPQIGVILEGTAVLEGPTNEGRWMINALISENAIFGMESLLETKTAPELTEYRVRALENGRALFIDREFFLNYLYANPHFFHLVLDDVIVRYLFTAKNYKNINQPPIIKVTRIFVEIIELLNLHQTEGPIVLPSYITQTFLADYCRSSRARITESLEELLVNGLLASKKPITISSHEKLLDQIDSFQTGNGLLTK | not soluble
8 | MLHTTQLYQHVPETRWPIVYSPRYNITFMGLEKLHPFDAGKWGKVINFLKEEKLLSDSMLVEAREASEEDLLVVHTRRYLNELKWSFAVATITEIPPVIFLPNFLVQRKVLRPLRTQTGGTIMAGKLAVERGWAINVGGGFHHCSSDRGGGFCAYADITLAIKFLFERVEGISRATIIDLDAHQGNGHERDFMDDKRVYIMDVYNRHIYPGDRFAKQAIRRKVELEWGTEDDEYLDKVERNIKKSLQEHLPDVVVYNAGTDILEGDRLGGLSISPAGIVKRDELVFRMVRGRRVPILMVTSGGYQKRTARIIADSILNLFGLGLIGPESPSVSAQNSDTPLLPPAVP | soluble
9 | MLIAVPLDDTNFSENLKKAKEKGADIVELRVDQFSDTSLNYVKEKLEEVHSQGLKTILTIRSPEEGGREVKNREELFEELSPLSDYTDIELSSRGLLVKLYNITKEAGKKLIISYHNFELTPPNWIIREVLREGYRYGGIPKIAVKANSYEDVARLLCISRQVEGEKILISMGDYGKISRLAGYVFGSVITYCSLEKAFAPGQIPLEEMVELRKKFYRL | soluble
10 | MLIFKIFRRSEWDDFRRAGATAGAPVDLADGYIHFSTAAQVAETAAKHFTAESDLVLVAIDPDRAGPDLKWEPSRGEQLFPHLYRRLTLDDVVWDKSLPLGATGHIFPEGLWLEHHHHHH | soluble
11 | MLILMDPEETGKAPEIRALKSRAVNRVDSDLGRMEAVKRLKGVEDRRVGSEVFDELTLKTLYKLANSGYLAVLNGAVSTGKEANVFKGITDTDDFVAVKIYRVATSDFKKMQYYIQGDPRFKVRTTNRRQLVQAWVNKEFRNLKRALEAGVRVPEPVTARDNVLIMEFIGKDGVPAPTMRDAPPEDPEEALETIIEYMHRLYKGARLVHGDLSFFNILNHCGEPVIIDVSQAMVLDHPLAGELLERDIENIIRDFRRIGVSVSADYIRERITGK | soluble
12 | MLIMNIRKIDDYTYEIPREGDMIVHGIVYSTDKLFKNTVEDGSLNQVVNVAKLPGIVEASYAMPDIHLGYGFPIGGVAAFDYDEGIISPGGVGYDINCGVALLRTGMNYAQIKPRIKDITDYIFQEVPSGLTSRKGFPVNQNDLQEILTSGLKWAVSRGLATELDMINTEDNGSIESHGTHVSKQAMQRGLSQIGTLGAGNHFLEIQRVSDIFDEDVARKFGLYKDEVTVMIHTGSRGLGHQVATDYLRELRESRESIKTSDPELISIHVKSKIGENYLDAMKSAANFAFVNRQMAIYGVRKVFKKFFDVEPELVYSLAHNIAKVEDHIVEGKTKSLIVHRKGATRAFGPGKSSPPFEDTGHPVLIPGSMGTASYVLVGVKENLIKSFGTACHGSGRVLSRNQAIKKFSSIVDRELEEKDVYARPATKRVLYEEAPGSYKNVDEVVAAVEGAHLARSIVRMVPLAVVKGLEHHHHHH | not soluble
13 | MLKGIPKIIPPELLKVLCEMGHGDQLVIADGNFPAESIGKNAIVVRMDGHGGGEILKAILTVFPLDTYVDKPATLMEKVPGDTVATPIWDVYAGLIKEHDERGADAIGSLERFAFYEQAKNAYCVIASGESAQYANLILQKGVVFNAE | soluble
14 | MLKHKIINLIQEKREGSYWDFKAEYHKDKAELLHDIICLSNNLLNQEAYLILGVADNGHILGVAGDSNRKNQEELISFITGKKFAAGRHPKISLMTFEYEEKEIDVIIINPKGYVPYYLERAETDQKSKKNKTVNAGSIYTRVEDKNTPIDSTASPLDTEILWKMHFGLYPTPIKRLQNYLLTPEKWMQNSTGYFHSESPEYIVYKNEDIEEKENYFNLVSPFYAYNQINSNTLYSYYEFKYHSTVLYGCRCISLDSGIYTTPVPELGEINFNMHRDDTIYYRYFIEETMLYNIHLFMYKGDSMEEKFAMDKFLECVLVYKSDVEKELFENYILDNWDKVNQSINENNKRVFGTEHLSQLEKEDITKKVKTVKVLKDELENFRTLEHHHHHH | not soluble
15 | MLKKMGEAVARVARKVNETVESGSDTLDLAECKLVSFPIGIYKVLRNVSGQIHLITLANNELKSLTSKFMTTFSQLRELHLEGNFLHRLPSEVSALQHLKAIDLSRNQFQDFPEQLTALPALETINLEENEIVDVPVEKLAAMPALRSINLRFNPLNAEVRVIAPPLIKFDMLMSPEGARAPLP | not soluble
16 | MLKLQTLQALICIEEVGSLRAAAQLLHLSQPALSAAIQQLEDELKAPLLVRTKRGVSLTSFGQAFMKHARLIVTESRRAQEEIGQLRGRWEGHITFAASPAIALAALPLALASFAREFPDVTVNVRDGMYPAVSPQLRDGTLDFALTAAHKHDIDTDLEAQPLYVSDVVIVGQRQHPMANATRLAELQECRWAFSSAPRGPGAIIRNAFARYGLPEPKLGLVCESFLALPGVVAHSDLLTTMPRTLYERNAFKDQLCSIPLQDALPNPTIYVLRRHDLPVTPAAAGLIRWIQHHALQTGHHHHHH | soluble
17 | MLKNLRIRKFEPEEEYVYFTYSIKNDKREKSKELIREYTTLLQKAIDYLWNLTKIQVRKKNGNYKITLPKKREVYKPLREELEKINHLASHYVDKAINDAFSILKSWRKRAIKGRASIEKPRVKKAYVRIKTTLRKVVGESVRITVRPHEYITFSWSKSWFSRRVRELELGEPIIKEEKVYLPFRYKLPWATPVDFLAIDSNLYTLDAYDGEKFVTISLKQLYSLKYSMEVKRAKVQSFASKHTKRGRELMRKYSHRERNRVLDFVHKFVNTLLDLYPMTFFAVEKLNKESMFKDANDSLSRKISRTVWGSIHRVLKYKAPLYGSFVKEVNPRFTSRSCPRCGFVSRKVGKTFECERCGFKLDRQLNASLNIYLKMCGFPHIREIARVWVGVIPLMGRRGMNGFPRDFGEAQGLRIDIEYHEIPLEHHHHHH | soluble
18 | MLKRPIHLSHDFLAEVVDKSSVVVDATMGNGNDTAFLAQLAKKVYAFDVQEQAIRKTSERLAQLGLSNAELILAGHEAVDQYVTEPVRAAIFNLGYLPSADKSIITLPNTTLQALSKLLTLLMVGGRIAIMVYYGHDGGSLEKDALLDFVKQLDQRKVSAMLYQPLNQVNTPPFLIMLEKLADF | not soluble
19 | MLKVEKFKKLKRFEVYYCLKNSFLEEVDIEMKYSCSITTIMSNGSASLLMNWEELTPGHCFTSYTTNPIAGDYGLNASAIDGHTEELVATHPAGTLENATQ | not soluble
20 | MLKYQQIATEIETYIEEHQLQQGDKLPVLETLMAQFEVSKSTITKSLELLEQKGAIFQVRGSGIFVRKHKRKGYISLLSNQGFKKDLEDFNVTSKVIELDVRKPTPEAAENLNIGMDEDIYYVKRVRYINGQTLCYEESYYTKSIVTYLNNEIVSHSIFHYIREGLGLKIGFSDLFLHVGQLNEEEAEYLGLEAGLPKLYIESIFHLTNGQPFDYSKISYNYEQSQFVVQANSFLL | soluble
21 | MLLAYQSVIASITYLNPNIRFQLSRRCPSLKSAEKSAPLFINKLKLCTNSVVVNDISYEVDVYKTSEAVLLTYNTDLDVFGSIDFDLEIEEQNEILLDHRTYMAERMRLEREVLGLMTHSRNPNADLSRLMEINRLNKIRIQAREDRREVPNTPPEPPLVQVIEFAVMETDNYGDCLENEQLTYDRKLHDAVKYIMEKLFCGRKTPVHLSTLSINSFGILRIPLNMRFKIRHLKLVSGHANEIASKIRPIIEDSSFPLKSIIIKDPVEFDDPIYHSTQLLVLRHQLENRSPRFLNVKVLPNQLYVTTKILNWVQQARPVGTCWEFVGIDKNSKRQCVQKLMQIPGAMRALHTKLCWIILPANDDSEIHVTVAQDKINSKQFSIKLTVY | not soluble
